In the supplement of paper PMC10567573:

B1: FEM1A (parent)
chain: NIVEYLIQEQPGQEQVAGGEAQPG
B2: HMOX1 (parent)
chain: YHIYVALEEEIERNKESPVFAPVY

Variants of: B1
Test: protein stability index of a GFP-peptide fusion (GPS, HEK-293T) (PSI 1-6); higher = more stable
Details: c terminus: a fixed tail appended
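Also: lentivirally expressed fusions sorted by FACS into six bins by GFP to DsRed ratio, PSI derived from sequencing read proportions per bin multiplied by bin number.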

Protein stability index: each site, then its substitutions
G18: C 3.8, H 4.47, D 5.01, K 3.75, W 3.12, T 4.2, A 4.2, Q 4.7, N 4.16, I 3.85, F 2.94, V 3.61, Y 3.36, S 3.78, L 3.54, P 4.3, R 4.15, E 4.9, M 4.31
G19: F 3.31, T 4.18, H 4.04, D 4.75, A 4.24, E 5.05, W 2.99, C 4.06, Q 4.09, L 3.6, P 4.16, V 3.96, K 4.22, N 4.43, M 3.72, R 3.66, S 4.65, Y 3.47, I 3.23
P23: A 4.93, I 3.94, N 4.25, K 4.29, E 4.74, G 4.19, F 3.66, L 4.24, C 3.98, Y 3.59, H 3.98, D 4.66, R 3.66, V 4.09, Q 3.7, W 3.03, M 4.33, S 4.46, T 4.14
Q22: L 4.16, N 4.22, A 4.1, H 3.94, C 4.58, W 2.51, Y 2.78, S 4.53, T 3.91, D 4.56, E 4.82, R 3.94, V 4.35, P 4.02, G 4.33, F 3.24, K 4.08, I 3.66, M 4.35
A21: I 3.91, Q 4.05, G 3.86, P 4.27, K 4.28, L 3.95, N 4.7, E 4.76, V 4.15, F 4.41, S 3.83, Y 4.03, W 3.03, C 4.09, R 4.19, H 3.77, M 4.16, T 4.67, D 4.53
A17: Y 3.68, S 4.72, R 3.5, W 2.73, Q 4.07, T 3.91, P 4.24, V 3.68
E20: L 3.54, N 3.73, W 2.62, K 4.25, T 3.63, A 3.89, D 4.59, F 3.46, V 3.49, G 4.38, P 3.79, R 3.79, Y 2.34, C 3.68, S 3.41, M 3.13, I 3.53, H 4.1, Q 3.9
G24: K 3.94, C 4.17, V 3.29, I 4.03, T 4.17, R 3.98, N 4.29, H 4.28, Q 4.37, A 3.67, P 4.12, Y 3.51, S 3.86, F 3.76, L 4.05, M 3.86, D 4.62, W 2.86, E 4.03

Variants of: B2
Test: as above
Details: c terminus: a fixed tail appended

Protein stability index: each site, then its substitutions
P22: Y 1.77, G 1.76, K 2.14, W 1.87, H 1.98, I 2.61, D 1.8, R 2.06, F 2.91
A21: S 2.02, V 1.76, R 2.2, P 2.06, D 2.91, E 2.41, T 2, L 1.58, H 2.06, C 1.72, Y 1.49
Y24: C 2.23, H 2.48, I 2.49, D 3.35, N 2.9, G 2.83
E8: I 2.51, K 2.07, N 1.94, H 2.18, G 3.48, S 3.74
L7: G 2.48, K 2.2, S 1.56, Q 2.16, A 2.34, F 1.97, I 1.76
V5: W 2.12, C 1.79, E 4.87, D 4.82
P18: W 2.31, F 1.79, M 1.75, I 1.49, D 2.3, C 1.85, G 2.46
H2: L 2.17, M 2.17, N 2.7, R 2.72, Y 1.89, D 3.19, C 1.73, T 2.18, W 1.38
I11: W 2.18, P 2.07, Y 2.21, A 1.31, T 1.54, V 1.84, L 1.57, F 1.6, S 2.15, R 1.56
E16: D 1.59, M 1.8, P 2.23, N 2.25, H 2.08, C 1.57, Q 2.11
Y1: F 2.03, Q 2.78, G 2.26, K 2.57, A 2.6, M 2.35, C 1.89, D 4.59
A6: C 1.64, H 3.14, N 1.59, R 1.7, T 1.82, S 1.74, L 2.1, M 2
V19: C 1.81, H 2.13, G 2.37, N 2.69, K 1.99, L 1.7, P 2.35, F 1.84, T 2.32, S 2.15
F20: Q 2.42, M 2.81, H 2.47, I 2.25, D 2.95, T 2.57
R13: F 2.97, E 1.34, N 1.23, Q 1.54, G 1.55, L 1.22, T 1.19, I 2.02, H 1.75, K 2.14, A 1.34
N14: C 1.32, G 1.98, I 1.26, M 2.31, Y 1.45, F 2.15, V 1.49, S 2.54, T 2.81, R 2.32, Q 2.62
E12: A 1.68, V 1.93, W 2.27, K 1.94, F 2.35, N 2.29, D 1.43, T 1.85
V23: C 2.12, S 1.85, G 2.1, R 2.87, E 2.63, L 1.77, H 1.84, M 1.89, N 1.78, P 2.69
E10: Q 2.7, D 2.93, T 2.83, L 2.27, G 1.54, W 1.26, Y 2, F 1.78
I3: C 3.57, G 2.77, T 1.92, D 2.27, A 1.42, Y 1.91, F 2.91, N 2.12
Y4: T 1.59, E 2.09, R 1.57, M 1.36, D 2.29, A 2.34, P 1.78
K15: A 2.92, H 1.42, V 1.83, G 1.9, R 1.38, D 1.57, F 2.13
E9: K 2.14, A 1.91, M 1.72, N 2.26, H 1.58, F 2.43, S 1.87
S17: P 2.02, W 2.65, I 2.46, R 2.2, E 1.85, D 2.3, L 2.19, K 2.14
